Kd data for five molecules are collected here from patent US20180127513A1 (published 2018).

Residue numbers refer to the chain shown, from its start. Names may count otherwise.

The labels stand for the following.
T1: human CD73 on cells (UniProt P21589 27-549)
T1 chain: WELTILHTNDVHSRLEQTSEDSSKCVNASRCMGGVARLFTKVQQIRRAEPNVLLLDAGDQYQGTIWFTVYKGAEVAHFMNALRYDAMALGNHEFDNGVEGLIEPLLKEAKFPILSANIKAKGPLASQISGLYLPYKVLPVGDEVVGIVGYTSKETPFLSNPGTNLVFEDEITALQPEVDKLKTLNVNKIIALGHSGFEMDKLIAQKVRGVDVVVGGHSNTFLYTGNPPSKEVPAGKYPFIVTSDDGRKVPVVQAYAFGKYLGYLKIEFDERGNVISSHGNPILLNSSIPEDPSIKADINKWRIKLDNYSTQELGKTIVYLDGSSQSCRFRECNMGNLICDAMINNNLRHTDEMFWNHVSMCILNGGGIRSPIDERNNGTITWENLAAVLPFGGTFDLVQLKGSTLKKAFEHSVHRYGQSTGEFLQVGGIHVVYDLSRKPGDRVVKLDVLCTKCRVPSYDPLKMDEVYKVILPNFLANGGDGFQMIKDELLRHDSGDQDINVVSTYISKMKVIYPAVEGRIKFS

B1: CD73.10-IgG2-C219S (antibody)
heavy: QVQLVESGGGVVQPGRSLRLSCAASGFTFSNYGMHWVRQAPGKGLEWVAVIWYDESNKYYPDSVKGRFTISRDNSKNTLYLQMNSLRAEDTAVYYCARGGSSWYPDSFDIWGQGTMVTVSSASTKGPSVFPLAPCSRSTSESTAALGCLVKDYFPEPVTVSWNSGALTSGVHTFPAVLQSSGLYSLSSVVTVPSSNFGTQTYTCNVDHKPSNTKVDKTVERKSCVECPPCPAPPVAGPSVFLFPPKPKDTLMISRTPEVTCVVVDVSHEDPEVQFNWYVDGVEVHNAKTKPREEQFNSTFRVVSVLTVVHQDWLNGKEYKCKVSNKGLPAPIEKTISKTKGQPREPQVYTLPPSREEMTKNQVSLTCLVKGFYPSDIAVEWESNGQPENNYKTTPPMLDSDGSFFLYSKLTVDKSRWQQGNVFSCSVMHEALHNHYTQKSLSLSPG
light: not shown
B2: CD73.4-IgG2-C219S-IgG1.1f (antibody)
heavy: QVQLVESGGGVVQPGRSLRLSCAASGFTFSNYGMHWVRQAPGKGLEWVAVILYDGSNKYYPDSVKGRFTISRDNSKNTLYLQMNSLRAEDTAVYYCARGGSSWYPDSFDIWGQGTMVTVSSASTKGPSVFPLAPCSRSTSESTAALGCLVKDYFPEPVTVSWNSGALTSGVHTFPAVLQSSGLYSLSSVVTVPSSNFGTQTYTCNVDHKPSNTKVDKTVERKSCVECPPCPAPPVAGPSVFLFPPKPKDTLMISRTPEVTCVVVDVSHEDPEVKFNWYVDGVEVHNAKTKPREEQYNSTYRVVSVLTVLHQDWLNGKEYKCKVSNKALPSSIEKTISKAKGQPREPQVYTLPPSREEMTKNQVSLTCLVKGFYPSDIAVEWESNGQPENNYKTTPPVLDSDGSFFLYSKLTVDKSRWQQGNVFSCSVMHEALHNHYTQKSLSLSPG
light: not shown
modifications: N-terminal Gln 94% pyro-Q; 97% of heavy chains lack the C-terminal Lys
B3: CD73.10-IgG2-C219S-IgG1.1f (antibody)
heavy: B2 heavy with L52W, G55E
light: not shown
B4: CD73.4-IgG2-C219S (antibody)
heavy: B1 heavy with W52L, E55G
light: not shown
B5: 11F11 (antibody, V domains shown)
VH: QVQLVESGGGVVQPGRSLRLSCATSGFTFSNYGMHWVRQAPGKGLEWVAVILYDGSNKYYPDSVKGRFTISRDNSKNTLYLQMNSLRAEDTAVYYCARGGSSWYPDSFDIWGQGTMVTVSS
VL: DIQMTQSPSSLSASVGDRVTITCRASQGISSWLAWYQQKPEKAPKSLIYAASSLQSGVPSRFSGSGSGTDFTLTISSLQPEDFATYYCQQYNSYPLTFGGGTKVEIKR

This assay has as its target T1, human CD73 on cells. The assay is described as follows: FACS cell binding; Calu6 cells.
B1 showed a Kd of 0.162 µg/mL.

B2: the Kd amounted to 0.0964 µg/mL.

On to B3, for which the Kd is 0.156 µg/mL.

Molecule B4 came in with an equilibrium dissociation constant (Kd) of 0.0826 µg/mL.

On to B5, for which binding was put at a Kd of 0.188 µg/mL. This Kd is about 2.3-fold higher than that of the molecule before.

In general, Kd refers to a measure of binding affinity in units of concentration. Low values mean a tighter complex, high ones a looser complex.
